Measurements as given in paper PMC7225057.
Read-outs that look alike come from different tables or passages of the source.

What was measured:
[1] = target: FITC-AM(37–52) [S45W/Q50W]; assay: fluorescence polarisation
FITC-sCT(22–32) (salmon) = assay: fluorescence polarisation
[2] = target: biotinylated sCT(1–32) [C1A/C7A] (salmon); assay: BLI
[3] = target: biotinylated sCT(1–32) [C1A/C7A] (salmon); assay: BLI; remark: listed apart in the source
[4] = target: FITC-AM(37–52) [S45W/Q50W]; assay: fluorescence polarisation; remark: listed apart in the source
[5] = target: Endo H-treated CTR.38–141 N130D (MBP-free CTR ECD) (human); assay: fluorescence polarisation
[6] = target: Endo H-treated CTR.38–141 WT (MBP-free CTR ECD) (human); assay: fluorescence polarisation
[7] = target: Glycan-free CTR.38–141 WT (E. coli-produced, MBP-free CTR ECD) (human); assay: fluorescence polarisation

Substance: RAMP1-CLR.29–144 N123D (tethered RAMP1-CLR ECD fusion) (from UniProt O60894 24-111; Q16602 29-144) (receptor)
- Kd [1]: 740 nM
- pKD [1]: 6.13

Substance: Endo H-treated CTR.38–141 WT (MBP-free CTR ECD) (domain or fragment)
- Kd (FITC-sCT(22–32) (salmon)): 500 nM
- pKD (FITC-sCT(22–32) (salmon)): 6.3
- kon [2]: 178000 M⁻¹ s⁻¹

Substance: RAMP1-CLR.29–144 WT, PNGase F-treated (deglycosylated) (from UniProt O60894 24-111; Q16602 29-144) (receptor)
- Kd [1]: 1400 nM
- pKD [1]: 5.87

Substance: CTR.34–141 WT (MBP-free CTR ECD, glycosylated, no enzyme treatment) (domain or fragment)
- Kd (FITC-sCT(22–32) (salmon)): 380 nM
- pKD (FITC-sCT(22–32) (salmon)): 6.43

Substance: Endo H-treated CTR.38–141 N130D (MBP-free CTR ECD) (domain or fragment)
- Kd [3]: 11900 nM
- Kd (FITC-sCT(22–32) (salmon)): 2000 nM
- pKD (FITC-sCT(22–32) (salmon)): 5.7
- Kd [2]: 12400 nM

Substance: Glycan-free CTR.38–141 WT (E. coli-produced, MBP-free CTR ECD) (domain or fragment)
- Kd [3]: 10800 nM
- Kd (FITC-sCT(22–32) (salmon)): 2700 nM
- pKD (FITC-sCT(22–32) (salmon)): 5.57
- Kd [2]: 30900 nM

Substance: RAMP1-CLR.29–144 WT (tethered RAMP1-CLR ECD fusion, CGRP receptor ECD) (from UniProt O60894 24-111; Q16602 29-144)
- Kd [4]: 280 nM
- pKD [4]: 6.56
- Kd [1]: 310 nM
- pKD [1]: 6.51

Substance: salmon calcitonin sCT(22–32), unlabeled (peptide)
- Ki [5]: 5600 nM
- pKI [5]: 5.26
- Ki [6]: 1600 nM
- pKI [6]: 5.81
- Ki [7]: 11000 nM
- pKI [7]: 4.97
